Target: recombinant, GPI-linked human FcRn on the surface of NS0 cells (human) (UniProt P55899)
Experiment: competitive flow cytometry on NS0 cells with human FcRn, pH 6.0; competitor biotinylated TNF-RII/Fc-fusion protein

fold better binding than the wild-type: 2 fold
Substance: TNF-RII/Fc-fusion protein double mutant T250Q/M428L (Fc fusion)

Reference: patent publication US20050226864A1
